Laboratory results taken from publication PMC4671958.

Molecular target: DNA polymerase theta helicase domain (Polθ-HLD), residues 1–894 (human), O75417
Test: crystal structure; apo protein, 3.55 Å, four copies in the asymmetric unit; crystallized in 0.2 M NaCl, 0.1 M HEPES (pH 7.0), 20% PEG 6K, 10% ethylene glycol
Conditions: remark: other sources report otherwise

stoichiometry N: 4
B1: DNA polymerase theta helicase domain (Polθ-HLD), residues 1–894, O75417 1-894 (domain or fragment)
chain: MNLLRRSGKRRRSESGSDSFSGSGGDSSASPQFLSGSVLSPPPGLGRCLKAAAAGECKPTVPDYERDKLLLANWGLPKAVLEKYHSFGVKKMFEWQAECLLLGQVLEGKNLVYSAPTSAGKTLVAELLILKRVLEMRKKALFILPFVSVAKEKKYYLQSLFQEVGIKVDGYMGSTSPSRHFSSLDIAVCTIERANGLINRLIEENKMDLLGMVVVDELHMLGDSHRGYLLELLLTKICYITRKSASCQADLASSLSNAVQIVGMSATLPNLELVASWLNAELYHTDFRPVPLLESVKVGNSIYDSSMKLVREFEPMLQVKGDEDHVVSLCYETICDNHSVLLFCPSKKWCEKLADIIAREFYNLHHQAEGLVKPSECPPVILEQKELLEVMDQLRRLPSGLDSVLQKTVPWGVAFHHAGLTFEERDIIEGAFRQGLIRVLAATSTLSSGVNLPARRVIIRTPIFGGRPLDILTYKQMVGRAGRKGVDTVGESILICKNSEKSKGIALLQGSLKPVRSCLQRREGEEVTGSMIRAILEIIVGGVASTSQDMHTYAACTFLAASMKEGKQGIQRNQESVQLGAIEACVMWLLENEFIQSTEASDGTEGKVYHPTHLGSATLSSSLSPADTLDIFADLQRAMKGFVLENDLHILYLVTPMFEDWTTIDWYRFFCLWEKLPTSMKRVAELVGVEEGFLARCVKGKVVARTERQHRQMAIHKRFFTSLVLLDLISEVPLREINQKYGCNRGQIQSLQQSAAVYAGMITVFSNRLGWHNMELLLSQFQKRLTFGIQRELCDLVRVSLLNAQRARVLYASGFHTVADLARANIVEVEVILKNAVPFKSARKAVDEEEEAVEERRNMRTIWVTGRKGLTEREAAALIVEEARMILQQDLVEM
